Results: patent US20210108188A1

Target: APOBEC3B with C-terminal 3xHA tag (A3Bi-3xHA) (human) (UniProt Q9UH17)
Experiment: cell-based or functional assay

hnRNPUL1-Cas9n-UGI-NLS (heterogeneous nuclear ribonucleoprotein U-like fused to the N-terminal end of Cas9 nickase, in the BE3 vector in place of APOBEC1) (from UniProt Q9BUJ2 1-856; Q99ZW2 2-1368; P14739 2-84)
eGFP-positive 293T cells 72 hours post-transfection (chromosomal eGFP Leu202 reporter): 1.5% | episomal eGFP Leu202 reporter editing frequency against the BFP-Cas9n/gRNA background: > 2 fold
